Measurements: patent US5847082, “Terminal complement inhibitor fusion proteins” (Alexion Pharmaceuticals, Inc., dated 1998)
Where two headings read alike, the source gives them in different places. Values belong to the molecule of their own block, whether it stands above or below them.

Assays:
[1] = target: T1, purified human complement component C9 (human, UniProt P02748)
[2] = target: T2, purified human complement component C8 (human, UniProt P07357)
[3] = target: T1, purified human complement component C9; experiment: cell-based or functional assay
[4] = target: T2, purified human complement component C8; experiment: cell-based or functional assay

percent dye release (Calcein AM) after complement attack, Balb/3T3 cells [1]: 3 fold
percent dye release (Calcein AM) after complement attack, Balb/3T3 cells [2]: 3 fold
Molecule: CD59-MCP TMTCIP (transmembrane form of CD59)

percent dye release (Calcein AM) after complement attack, Balb/3T3 cells [3]: ~3 fold
percent dye release (Calcein AM) after complement attack, Balb/3T3 cells [4]: ~3 fold
B1: native human CD59, GPI-anchored (other)
chain: LQCYNCPNPTADCKTAVNCSSDFDACLITKAGLQVYNKCWKFEHCNFNDVTTRLRENELTYYCCKKDLCNFNEQLENGGTSLSEKTVLLLVTPFLAAAWSLHP
modifications: glycosyl-phosphatidylinositol (GPI) anchor at the carboxyl terminus
